We go through one protein from publication PMC1868598.

Data set [1] is described as follows: confocal colocalisation with GFP-Rab4, transfected HeLa/COS-1. The conditions noted are these: glycan lost; control: wild type.
Data set [2] in a line: Triton X-100 lysis, sucrose gradient flotation, COS-1. The note with it: glycan lost; control: wild type.

B1: human ClC-6 (hClC-6a): AAA-hClC-6 (protein)
parent chain: MAGCRGSLCCCCRWCCCCGERETRTPEELTILGETQEEEDEILPRKDYESLDYDRCINDPYLEVLETMDNKKGRRYEAVKWMVVFAIGVCTGLVGLFVDFFVRLFTQLKFGVVQTSVEECSQKGCLALSLLELLGFNLTFVFLASLLVLIEPVAAGSGIPEVKCYLNGVKVPGIVRLRTLLCKVLGVLFSVAGGLFVEKEGPMIHSGSVVGAGLPQFQSISLRKIQFNFPYFRSDRDKRDFVSAGAAAGVAAAFGAPIGGTLFSLEEGSSFWNQGLTWKVLFCSMSATFTLNFFRSGIQFGSWGSFQLPGLLNFGEFKCSDSDKKCHLWTAMDLGFFVVMGVIGGLLGATFNCLNKRLAKYRMRNVHPKPKLVRVLESLLVSLVTTVVVFVASMVLGECRQMSSSSQIGNDSFQLQVTEDVNSSIKTFFCPNDTYNDMATLFFNPQESAILQLFHQDGTFSPVTLALFFVLYFLLACWTYGISVPSGLFVPSLLCGAAFGRLVANVLKSYIGLGHIYSGTFALIGAAAFLGGVVRMTISLTVILIESTNEITYGLPIMVTLMVAKWTGDFFNKGIYDIHVGLRGVPLLEWETEVEMDKLRASDIMEPNLTYVYPHTRIQSLVSILRTTVHHAFPVVTENRGNEKEFMKGNQLISNNIKFKKSSILTRAGEQRKRSQSMKSYPSSELRNMCDEHIASEEPAEKEDLLQQMLERRYTPYPNLYPDQSPSEDWTMEERFRPLTFHGLILRSQLVTLLVRGVCYSESQSSASQPRLSYAEMAEDYPRYPDIHDLDLTLLNPRMIVDVTPYMNPSPFTVSPNTHVSQVFNLFRTMGLRHLPVVNAVGEIVGIITRHNLTYEFLQARLRQHYQTI
As to B1, the localisation_or_trafficking entry in data set [1] is given as “no change”. In addition, the “other: detergent-resistant membrane association” value in data set [2] is on record as “no change”.
